# Assay results reported in PMC2169363.
# Columns and labels:
# [1] = target: unphosphorylated smooth muscle myosin (chicken gizzard) (chicken) (UniProt P10587); test: co-sedimentation
# [2] = target: phosphorylated smooth muscle myosin (chicken gizzard) (chicken) (UniProt P10587); test: co-sedimentation
amount recovered in the precipitate with 1.1 μM myosin (4.0 μM added) [1],EC50 [1],EC50 [2],Substance
1 µM,,,"recombinant 38k protein, full-length (1-207) (natural protein)"
,1800 nM,,human p32 (recombinant) (from UniProt Q07021 74-282) (natural protein)
,1700 nM,1400 nM,"38k protein (native, purified from chicken gizzard smooth muscle) (natural protein)"
